Assay results as given in publication PMC4025573.

Key:
purified protein [1] = substrate: CC(C)C(=O)C(=O)O; assay: purified protein; conditions: pH 7.5; 25.0 °C
purified protein [2] = substrate: CC(=O)SCCNC(=O)CCNC(=O)[C@H](O)C(C)(C)COP(=O)(O)OP(=O)(O)OC[C@H]1O[C@@H](n2cnc3c(N)ncnc32)[C@H](O)[C@@H]1OP(=O)(O)O; assay: purified protein; conditions: pH 7.5; 25.0 °C

B1: MtIPMS (α-isopropylmalate synthase from Mycobacterium tuberculosis) (Mycobacterium tuberculosis H37Rv) (protein)
chain: MTTSESPDAYTESFGAHTIVKPAGPPRVGQPSWNPQRASSMPVNRYRPFAEEVEPIRLRNRTWPDRVIDRAPLWCAVDLRDGNQALIDPMSPARKRRMFDLLVRMGYKEIEVGFPSASQTDFDFVREIIEQGAIPDDVTIQVLTQCRPELIERTFQACSGAPRAIVHFYNSTSILQRRVVFRANRAEVQAIATDGARKCVEQAAKYPGTQWRFEYSPESYTGTELEYAKQVCDAVGEVIAPTPERPIIFNLPATVEMTTPNVYADSIEWMSRNLANRESVILSLHPHNDRGTAVAAAELGFAAGADRIEGCLFGNGERTGNVCLVTLGLNLFSRGVDPQIDFSNIDEIRRTVEYCNQLPVHERHPYGGDLVYTAFSGSHQDAINKGLDAMKLDADAADCDVDDMLWQVPYLPIDPRDVGRTYEAVIRVNSQSGKGGVAYIMKTDHGLSLPRRLQIEFSQVIQKIAEGTAGEGGEVSPKEMWDAFAEEYLAPVRPLERIRQHVDAADDDGGTTSITATVKINGVETEISGSGNGPLAAFVHALADVGFDVAVLDYYEHAMSAGDDAQAAAYVEASVTIASPAQPGEAGRHASDPVTIASPAQPGEAGRHASDPVTSKTVWGVGIAPSITTASLRAVVSAVNRAAR
Purified protein [1]
  Km: 6.4 ± 1.4 µM
  kcat/Km: 500000 ± 130000 M⁻¹ s⁻¹
Purified protein [2]
  Km: 42 ± 12 µM
  kcat/Km: 80000 ± 20000 M⁻¹ s⁻¹
